Test results: the supplement of paper PMC7125110
± gives the standard error. Variants at the floor of the assay were thinned out.

B1: glmS ribozyme (parent)
chain: AUAAAAGCGCCAGAACUACAGAAAUGUAGUUGACGAGGAGGAGGUUUAUCGAAUUUUCGGCGGAUGCCUCCAAA

Experiments:
Settings in all cases: with glucosamine-6-phosphate
[1] = variants of: B1; assay: self-cleavage kobs at 40 uM GlcN6P; higher = faster cleavage; RNA array
Procedure, shortened: (§1)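 Barcoded ribozyme variants, transcribed in situ by E. coli RNA polymerase on sequenced MiSeq chips, were followed via a hybridised Cy3 probe at 37 °C. Glucosamine-6-phosphate ranged from 40 μM to 10 mM in HEPES/KCl/Mg(OAc)2 buffer. kobs came from decay fits to per-tile medians, and kcat and KM from weighted Michaelis–Menten fits.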

[2] = variants of: B1; assay: self-cleavage kobs at 2500 uM GlcN6P; higher = faster cleavage; RNA array
Procedure, shortened: as §1

[3] = variants of: B1; assay: self-cleavage kobs at 160 uM GlcN6P; higher = faster cleavage; RNA array
Procedure, shortened: as §1

[4] = variants of: B1; assay: self-cleavage kobs at 640 uM GlcN6P; higher = faster cleavage; RNA array
Procedure, shortened: as §1

[5] = variants of: B1; assay: self-cleavage kobs at 10000 uM GlcN6P; higher = faster cleavage; RNA array
Procedure, shortened: as §1

Row | Variant | self-cleavage kobs at 40 uM GlcN6P [1] | self-cleavage kobs at 2500 uM GlcN6P [2] | self-cleavage kobs at 160 uM GlcN6P [3] | self-cleavage kobs at 640 uM GlcN6P [4] | self-cleavage kobs at 10000 uM GlcN6P [5]
1 | AUAAAAGCUCCAGAAGUACAGAAAUGUAGUUGACGAGGAGGAGGUUUAUCGAAUUUUCGGCGGAUGCCUCCAAA [G9U C16G] | < 1e-05 s⁻¹ | < 1e-05 s⁻¹ | – | – | –
2 | AUAAAAGCUCCGGAACUACAGAAAUGUAGUUUACGAGGAGGAUGAUUAUCGAAUUUUCGGCGGAUGCCUCCAAA [G9U A12G G32U G43U U45A] | < 1e-05 s⁻¹ | – | – | – | –
3 | AUAAAAGCCCCAGAACUACAGAAAUGUAGUUGACGAGGAGGAGGUUUAUCGACUUUUCGGCGGAUGCCUCCAAA [G9C A53C] | < 1e-05 s⁻¹ | – | < 1e-05 s⁻¹ | < 1e-05 s⁻¹ | < 1e-05 s⁻¹
4 | AUAAAAGCCCCAGAACUACAGAAAUGUAGUUGACGAGGAGGAGGUUUAUCGAUUUUUCGGCGGAUGCCUCCAAA [G9C A53U] | < 1e-05 s⁻¹ | < 1e-05 s⁻¹ | < 1e-05 s⁻¹ | < 1e-05 s⁻¹ | < 1e-05 s⁻¹
5 | AUAAAAGCUCCAGACCUACAGAAAUGUAGUUGACGAGGAGGAGCUUCAUCGAAUUUUCGGCGGAUGCCUCCAAA [G9U A15C G44C U47C] | < 1e-05 s⁻¹ | < 1e-05 s⁻¹ | – | – | < 1e-05 s⁻¹
6 | AUAAAAGCCCCAGAACUACAGAAAUGUAGUUGACGAGGAGGAAUUUUAUCGAAUUUUCGGCGGAUGCCUGCAAA [G9C G43A G44U C70G] | < 1e-05 s⁻¹ | – | – | – | < 1e-05 s⁻¹
7 | AUAAAAGCCCCAGAACUACAGAAAUGUAGUUGACGAGGAGGAGGUUUAUCGAAUUUUCGGCGCAUGCCUCCAAA [G9C G63C] | < 1e-05 s⁻¹ | < 1e-05 s⁻¹ | < 1e-05 s⁻¹ | < 1e-05 s⁻¹ | –
8 | AUAAAAGCCCCAGAGCUACAGAAAUGUAGUUGACGAGGAGGAGGUUUAUGGAAUUUUCCGCGGAUGCCUGCAAA [G9C A15G C50G G59C C70G] | 0.00011 ± 3.6e-05 s⁻¹ | – | – | – | 0.000264 ± 5.3e-05 s⁻¹
9 | AUAAAAGCUCCAGAUCUACAGAAAUGUAGUUGACGAGGAGAAGGUUUAUCGAAUAUUCGACGGAUGCCUCCAAA [G9U A15U G41A U55A G60A] | < 1e-05 s⁻¹ | – | – | – | < 1e-05 s⁻¹
10 | AUAAAAGCCCCAGAACUACAGAAAUGUAUUUGACGAGGAGGAGGUUUAUCGAAUUUUCGGCGGAUGCCUCCAAA [G9C G29U] | < 1e-05 s⁻¹ | – | < 1e-05 s⁻¹ | < 1e-05 s⁻¹ | < 1e-05 s⁻¹
11 | AUAAAAGCCCUAGAACUACAGAAAUGUAGUCGACGGGAAGGAGGUUUAUGGAAUUUUCGGCGGAUGCCGGCAAA [G9C C11U U31C A36G G38A C50G U69G C70G] | 0.00075 ± 0.00022 s⁻¹ | – | – | – | 0.000818 ± 0.00021 s⁻¹
12 | AUAAAAGCUCAAGAACUACAGAAAUGUAGUUGACGAGGAGGAGGUUUAUCGAAUUUUCAGCGGUUGCCUCCAAA [G9U C11A G59A A64U] | < 1e-05 s⁻¹ | – | – | – | –
13 | AUAAAAGCUGCAGAACUACAGAAAUGUAGUUGACGAGGAGGAGGUUUCUCGGAUUUUCGGCGGAUGCCUCCAAA [G9U C10G A48C A52G] | < 1e-05 s⁻¹ | – | – | – | –
14 | AUAAAAGCUCCAGAACUACAGAAAUGUAGUUGACGAGGUGGAGGUUUAUCGAAUUUUCGGCGGAUGCUUCCAAA [G9U A39U C68U] | < 1e-05 s⁻¹ | – | – | – | –
15 | AUAAAAGCUCCAGAACUACAGAAAUGUAGUUGACGGGGAGGUGUUUUAUCGAAUUUUCGGCGGAUGCCUCCAAA [G9U A36G A42U G44U] | < 1e-05 s⁻¹ | < 1e-05 s⁻¹ | – | < 1e-05 s⁻¹ | –
16 | AUAAAAGCCCCAGAACUACAGAAAUGUAGUUGACGAGGAGGAGGUUUAUCGAAUUUUCGGCGGAUGCCUCGAAA [G9C C71G] | < 1e-05 s⁻¹ | < 1e-05 s⁻¹ | < 1e-05 s⁻¹ | < 1e-05 s⁻¹ | < 1e-05 s⁻¹

Row | Variant | self-cleavage kobs at 40 uM GlcN6P [1] | self-cleavage kobs at 2500 uM GlcN6P [2] | self-cleavage kobs at 160 uM GlcN6P [3] | self-cleavage kobs at 640 uM GlcN6P [4] | self-cleavage kobs at 10000 uM GlcN6P [5]
17 | AUAAAAGCCCAAGAACUACAGAAAUGUAGUUGACGAGGAGGAGGUUUAUCGAAUUUUCGGCGGAUGCCUCCAAA [G9C C11A] | < 1e-05 s⁻¹ | – | < 1e-05 s⁻¹ | – | –
18 | AUAAAAGCCCCAGAACUACAGAAAUGUAGUUGACGAGGAGGAGGUUCAUCGAGUUUUCGGCAGAUGCGUCCAAA [G9C U47C A53G G62A C68G] | < 1e-05 s⁻¹ | – | – | – | < 1e-05 s⁻¹
19 | AUAAAAGCCCCAGAACUACAGAAAUGUACUUGACGAGGAGGAGGUUUAUCGAAUUUUCGGCGGAUGUCUCCAAA [G9C G29C C67U] | < 1e-05 s⁻¹ | – | – | < 1e-05 s⁻¹ | < 1e-05 s⁻¹
20 | AUAAAAGCUCCAGAACUACAGAAAUGUAGUUGACGAGGAGGAGGUUUAUCGAAUUUUCGGCGGCUGCCUCCAAA [G9U A64C] | < 1e-05 s⁻¹ | – | < 1e-05 s⁻¹ | < 1e-05 s⁻¹ | < 1e-05 s⁻¹
21 | AUAAAAGCUCCAGAACUACAGAAAUGUAGUUGCCGCGGAGGAGGUCUAUCGAAUUUUCGGCGGAUGCGUCCAAA [G9U A33C A36C U46C C68G] | < 1e-05 s⁻¹ | – | – | – | < 1e-05 s⁻¹
22 | AUAAAAGCUCCAGAACUACAGAAAUGUAGUUGACGAGGAGGAGGUUUGUCGAAUUUUCGGCGGAUGCCUCCAAA [G9U A48G] | < 1e-05 s⁻¹ | – | < 1e-05 s⁻¹ | < 1e-05 s⁻¹ | < 1e-05 s⁻¹
23 | AUAAAAGCUCCAGGACUACAGAAAUGUAGUUGACGAGGAGGAGGUUUAUCGAAUUUUCCGCGGAUGCUUCCAAA [G9U A14G G59C C68U] | < 1e-05 s⁻¹ | – | – | – | < 1e-05 s⁻¹
24 | AUAAAAGCCCCACAACUACAGAAAUGUAGUUGACCAGGAGGAGGUUUAUCGAAUUUUCGGCGGAUGCCUCCAAA [G9C G13C G35C] | < 1e-05 s⁻¹ | – | – | < 1e-05 s⁻¹ | –
25 | AUAAAAGCUCUAGAACUACAGAAAUGUAGUUGACGAGGAGGAGGUUUAUCGAAUUUUCGGCGGAUGCUUCCAAA [G9U C11U C68U] | < 1e-05 s⁻¹ | – | – | – | –
26 | AUAAAAGCCCGAGAACUACAGAAAUGUAGUUGACGAGGAAGAGGUUUAUCGAAUUUUCGGCGGAUGCCUCCAAA [G9C C11G G40A] | < 1e-05 s⁻¹ | – | – | – | < 1e-05 s⁻¹
27 | AUAAAAGCCCCAGAACUACAGAAAUGUAGUUGACGAGGAGGAGGUUUAUCGAAAUGUCGGCGGAUACCUCCAAA [G9C U54A U56G G66A] | < 1e-05 s⁻¹ | – | – | – | –
28 | AUAAAAGCCCCAGAACUACAGAAAUGUAGUUGACGAGGAGGAGGUUUAUCGAAUUUCCGGCGGAUGCCUCAAAA [G9C U57C C71A] | < 1e-05 s⁻¹ | – | – | – | < 1e-05 s⁻¹
29 | AUAAAAGCCCCAGAACUACAGAAAUGUAGUGGACGAGGAGGAGGUUUAUCGAACUUUCGGCGGAUGCCUCCAAA [G9C U31G U54C] | < 1e-05 s⁻¹ | – | – | – | –
30 | AUAAAAGCCCCAGAACUACAGAAAUGUAGUUGACGAGGAGGGGGUUUAUCGAAUUUUCGGCGGAUGCCUCCAAA [G9C A42G] | < 1e-05 s⁻¹ | < 1e-05 s⁻¹ | < 1e-05 s⁻¹ | – | < 1e-05 s⁻¹
31 | AUAAAAGCUCCAGAACUACAGAAAUGUAGUUGUCGAGGAGGAGGUUUAUCGAUUUUUCGGGGGAUGCCUCCAAA [G9U A33U A53U C61G] | < 1e-05 s⁻¹ | – | – | – | –
